Consider 7 sequences from the supplement of paper PMC5998384.

For data set [1], the system named is HeLa Kyoto. The data set is described as follows: solubility in G1/S (NP-40 vs SDS abundance) (log2 ratio); higher = more soluble. The settings on record: cell cycle stage: G1/S.
Data set [2] has as its system HeLa Kyoto. Kind of data set: thermal stability score vs G1/S (z-score of summed log2 fold changes over temperatures); higher = more thermally stable than in G1/S.
The subject of data set [3] is HeLa Kyoto. The data set is described as follows: melting temperature (median over replicates), in situ; higher = more thermally stable.
Data set [4] concerns HeLa Kyoto. The data set is described as follows: solubility change mitosis vs G1/S (difference of NP-40 vs SDS log2 ratios) (log2 ratio difference); higher = more soluble in mitosis.
The mark [5] stands for this setting: cell cycle stage: early G1 (4.5 h after nocodazole release).
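Wherever melting temperature (median over replicates), in situ is given: HeLa Kyoto cells synchronized by double thymidine or nocodazole block, proteins quantified by TMT10plex mass spectrometry, three independent biological replicates.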
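Wherever solubility change mitosis vs G1/S (difference of NP-40 vs SDS log2 ratios) is given: synchronized HeLa Kyoto cells (double thymidine block for G1/S, nocodazole release for mitosis), protein amounts in NP-40 versus SDS lysates quantified by mass spectrometry, three biological replicates.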
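Wherever solubility in G1/S (NP-40 vs SDS abundance) is given: HeLa Kyoto cells arrested at G1/S by double thymidine block, proteins quantified by TMT10plex mass spectrometry in mild NP-40 versus SDS extracts, three biological replicates.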
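Wherever thermal stability score vs G1/S (z-score of summed log2 fold changes over temperatures) is given: synchronized HeLa Kyoto cells, proteins quantified by TMT10plex mass spectrometry, three biological replicates, mitosis taken 0.5 h after nocodazole release, G1/S directly after double thymidine block.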

For the sequence “MGNAGSMDSQQTDFRAHNVPLKLPMPEPGELEERFAIVLNAMNLPPDKARLLRQYDNEKKWELICDQERFQVKNPPHTYIQKLKGYLDPAVTRKKFRRRVQESTQVLRELEISLRTNHIGWVREFLNEENKGLDVLVEYLSFAQYAVTFDFESVESTVESSVDKSKPWSRSIEDLHRGSNLPSPVGNSVSRSGRHSALRYNTLPSRRTLKNSRLVSKKDDVHVCIMCLRAIMNYQYGFNMVMSHPHAVNEIALSLNNKNPRTKALVLELLAAVCLVRGGHEIILSAFDNFKEVCGEKQRFEKLMEHFRNEDNNIDFMVASMQFINIVVHSVEDMNFRVHLQYEFTKLGLDEYLDKLKHTESDKLQVQIQAYLDNVFDVGALLEDAETKNAALERVEELEENISHLSEKLQDTENEAMSKIVELEKQLMQRNKELDVVREIYKDANTQVHTLRKMVKEKEEAIQRQSTLEKKIHELEKQGTIKIQKKGDGDIAILPVVASGTLSMGSEVVAGNSVGPTMGAASSGPLPPPPPPLPPSSDTPETVQNGPVTPPMPPPPPPPPPPPPPPPPPPPPPLPGPAAETVPAPPLAPPLPSAPPLPGTSSPTVVFNSGLAAVKIKKPIKTKFRMPVFNWVALKPNQINGTVFNEIDDERILEDLNVDEFEEIFKTKAQGPAIDLSSSKQKIPQKGSNKVTLLEANRAKNLAITLRKAGKTADEICKAIHVFDLKTLPVDFVECLMRFLPTENEVKVLRLYERERKPLENLSDEDRFMMQFSKIERLMQKMTIMAFIGNFAESIQMLTPQLHAIIAASVSIKSSQKLKKILEIILALGNYMNSSKRGAVYGFKLQSLDLLLDTKSTDRKQTLLHYISNVVKEKYHQVSLFYNELHYVEKAAAVSLENVLLDVKELQRGMDLTKREYTMHDHNTLLKEFILNNEGKLKKLQDDAKIAQDAFDDVVKYFGENPKTTPPSVFFPVFVRFVKAYKQAEEENELRKKQEQALMEKLLEQEALMEQQDPKSPSHKSKRQQQELIAELRRRQVKDNRHVYEGKDGAIEDIITVLKTVPFTARTAKRGSRFFCEPVLTEEYHY [FMNL2]”, the “solubility in G1/S (log2)” value in the data set on HeLa Kyoto [1] is -0.0432. Also, the thermal stability score in the data set on HeLa Kyoto [2] (setting [5]) was determined as 0.436; with HeLa Kyoto [2] (cell cycle stage: mitosis), 0.612. Besides, the melting temperature in the data set on HeLa Kyoto [3] (cell cycle stage: G1/S) turned out to be 50.8 °C. In the data set on HeLa Kyoto [4], the “solubility change mitosis (log2)” value was -0.0897.

For the sequence “MGDSHVDTSSTVSEAVAEEVSLFSMTDMILFSLIVGLLTYWFLFRKKKEEVPEFTKIQTLTSSVRESSFVEKMKKTGRNIIVFYGSQTGTAEEFANRLSKDAHRYGMRGMSADPEEYDLADLSSLPEIDNALVVFCMATYGEGDPTDNAQDFYDWLQETDVDLSGVKFAVFGLGNKTYEHFNAMGKYVDKRLEQLGAQRIFELGLGDDDGNLEEDFITWREQFWPAVCEHFGVEATGEESSIRQYELVVHTDIDAAKVYMGEMGRLKSYENQKPPFDAKNPFLAAVTTNRKLNQGTERHLMHLELDISDSKIRYESGDHVAVYPANDSALVNQLGKILGADLDVVMSLNNLDEESNKKHPFPCPTSYRTALTYYLDITNPPRTNVLYELAQYASEPSEQELLRKMASSSGEGKELYLSWVVEARRHILAILQDCPSLRPPIDHLCELLPRLQARYYSIASSSKVHPNSVHICAVVVEYETKAGRINKGVATNWLRAKEPAGENGGRALVPMFVRKSQFRLPFKATTPVIMVGPGTGVAPFIGFIQERAWLRQQGKEVGETLLYYGCRRSDEDYLYREELAQFHRDGALTQLNVAFSREQSHKVYVQHLLKQDREHLWKLIEGGAHIYVCGDARNMARDVQNTFYDIVAELGAMEHAQAVDYIKKLMTKGRYSLDVWS [POR]”, in the data set on HeLa Kyoto [1], the “solubility in G1/S (log2)” value was found to be 0.0892. The figures for the thermal stability score with HeLa Kyoto [2] (setting [5]) and with HeLa Kyoto [2] (cell cycle stage: mitosis) were 4.17 and 5.83, respectively. Further, the melting temperature was found to be 51.6 °C in the data set on HeLa Kyoto [3] (cell cycle stage: G1/S) and 51.1 °C with HeLa Kyoto [3] (cell cycle stage: mitosis). The “solubility change mitosis (log2)” value with HeLa Kyoto [4] was -0.125.

Consider “MSTPAVPQDLQLPPSQRAQSAFKEQRRQKLKEHLLRRKTLFAYKQENEMLSSSRDQRVVTSEDQVQEGTKVLKLKTKMADKENMKRPAESKNNTVVGKHCIPLKPSNELTNSTVVIDTHKPKDSNQTPHLLLTEDDPQSQHMTLSQAFHLKNNSKKKQMTTEKQKQDANMPKKPVLGSYRGQIVQSKINSFRKPLQVKDESSAATKKLSATIPKATKPQPVNTSSVTVKSNRSSNMTATTKFVSTTSQNTQLVRPPIRSHHSNTRDTVKQGISRTSANVTIRKGPHEKELLQSKTALSSVKTSSSQGIIRNKTLSRSIASEVIARPASLSNDKLMEKSEPVDQRRHTAGKAIVDSRSAQPKETSEERKARLSEWKAGKGRVLKRPPNSVVTQHEPAGQNEKPVGSFWTTMAEEDEQRLFTEKVNNTFSECLNLINEGCPKEDILVTLNDLIKNIPDAKKLVKYWICLALIEPITSPIENIIAIYEKAILAGAQPIEEMRHTIVDILTMKSQEKANLGENMEKSCASKEEVKEVSIEDTGVDVDPEKLEMESKLHRNLLFQDCEKEQDNKTKDPTHDVKTPNTETRTSCLIKYNVSTTPYLQSVKKKVQFDGTNSAFKELKFLTPVRRSRRLQEKTSKLPDMLKDHYPCVSSLEQLTELGRETDAFVCRPNAALCRVYYEADTT [CKAP2]”, for which the “solubility in G1/S (log2)” value in the data set with HeLa Kyoto [1] was -0.733. The thermal stability score was -1.31 with HeLa Kyoto [2] (setting [5]) and -0.259 in the data set with HeLa Kyoto [2] (cell cycle stage: mitosis). In addition, the melting temperature in the data set with HeLa Kyoto [3] (cell cycle stage: G1/S) amounted to 51 °C; in the data set on HeLa Kyoto [3] (cell cycle stage: mitosis), 49.3 °C. For the same sequence, the “solubility change mitosis (log2)” value with HeLa Kyoto [4] amounted to 0.657.

For the sequence “MIPLLLAALLCVPAGALTCYGDSGQPVDWFVVYKLPALRGSGEAAQRGLQYKYLDESSGGWRDGRALINSPEGAVGRSLQPLYRSNTSQLAFLLYNDQPPQPSKAQDSSMRGHTKGVLLLDHDGGFWLVHSVPNFPPPASSAAYSWPHSACTYGQTLLCVSFPFAQFSKMGKQLTYTYPWVYNYQLEGIFAQEFPDLENVVKGHHVSQEPWNSSITLTSQAGAVFQSFAKFSKFGDDLYSGWLAAALGTNLQVQFWHKTVGILPSNCSDIWQVLNVNQIAFPGPAGPSFNSTEDHSKWCVSPKGPWTCVGDMNRNQGEEQRGGGTLCAQLPALWKAFQPLVKNYQPCNGMARKPSRAYKI [DNASE2]”, the “solubility in G1/S (log2)” value with HeLa Kyoto [1] was found to be 0.364. For the same sequence, the thermal stability score in the data set on HeLa Kyoto [2] (setting [5]) was -1.39; in the data set on HeLa Kyoto [2] (cell cycle stage: mitosis), -2.33. Further, the melting temperature was 56.2 °C in the data set with HeLa Kyoto [3] (cell cycle stage: G1/S) and 56.1 °C with HeLa Kyoto [3] (cell cycle stage: mitosis). Further, the “solubility change mitosis (log2)” value in the data set on HeLa Kyoto [4] is -0.0918.

For the sequence “MSDVEENNFEGRESRSQSKSPTGTPARVKSESRSGSRSPSRVSKHSESHSRSRSKSRSRSRRHSHRRYTRSRSHSHSHRRRSRSRSYTPEYRRRRSRSHSPMSNRRRHTGSRANPDPNTCLGVFGLSLYTTERDLREVFSRYGPLSGVNVVYDQRTGRSRGFAFVYFERIDDSKEAMERANGMELDGRRIRVDYSITKRAHTPTPGIYMGRPTHSGGGGGGGGGGGGGGGGRRRDSYYDRGYDRGYDRYEDYDYRYRRRSPSPYYSRYRSRSRSRSYSPRRY [TRA2A]”, the “solubility in G1/S (log2)” value with HeLa Kyoto [1] is -1.11. Moreover, the thermal stability score with HeLa Kyoto [2] (setting [5]) is 1.2; in the data set on HeLa Kyoto [2] (cell cycle stage: mitosis), 1.92. In addition, the melting temperature in the data set with HeLa Kyoto [3] (cell cycle stage: G1/S) turned out to be 49.1 °C; in the data set with HeLa Kyoto [3] (cell cycle stage: mitosis) it was 49.5 °C. Besides, the “solubility change mitosis (log2)” value with HeLa Kyoto [4] worked out at 0.522.

As to “MASILDEYENSLSRSAVLQPGCPSVGIPHSGYVNAQLEKEVPIFTKQRIDFTPSERITSLVVSSNQLCMSLGKDTLLRIDLGKANEPNHVELGRKDDAKVHKMFLDHTGSHLLIALSSTEVLYVNRNGQKVRPLARWKGQLVESVGWNKALGTESSTGPILVGTAQGHIFEAELSASEGGLFGPAPDLYFRPLYVLNEEGGPAPVCSLEAERGPDGRSFVIATTRQRLFQFIGRAAEGAEAQGFSGLFAAYTDHPPPFREFPSNLGYSELAFYTPKLRSAPRAFAWMMGDGVLYGALDCGRPDSLLSEERVWEYPEGVGPGASPPLAIVLTQFHFLLLLADRVEAVCTLTGQVVLRDHFLEKFGPLKHMVKDSSTGQLWAYTERAVFRYHVQREARDVWRTYLDMNRFDLAKEYCRERPDCLDTVLAREADFCFRQRRYLESARCYALTQSYFEEIALKFLEARQEEALAEFLQRKLASLKPAERTQATLLTTWLTELYLSRLGALQGDPEALTLYRETKECFRTFLSSPRHKEWLFASRASIHELLASHGDTEHMVYFAVIMQDYERVVAYHCQHEAYEEALAVLARHRDPQLFYKFSPILIRHIPRQLVDAWIEMGSRLDARQLIPALVNYSQGGEVQQVSQAIRYMEFCVNVLGETEQAIHNYLLSLYARGRPDSLLAYLEQAGASPHRVHYDLKYALRLCAEHGHHRACVHVYKVLELYEEAVDLALQVDVDLAKQCADLPEEDEELRKKLWLKIARHVVQEEEDVQTAMACLASCPLLKIEDVLPFFPDFVTIDHFKEAICSSLKAYNHHIQELQREMEEATASAQRIRRDLQELRGRYGTVEPQDKCATCDFPLLNRPFYLFLCGHMFHADCLLQAVRPGLPAYKQARLEELQRKLGAAPPPAKGSARAKEAEGGAATAGPSREQLKADLDELVAAECVYCGELMIRSIDRPFIDPQRYEEEQLSWL [VPS18]”, the “solubility in G1/S (log2)” value in the data set on HeLa Kyoto [1] was -0.115. The thermal stability score with HeLa Kyoto [2] (setting [5]) is 0.54; in the data set on HeLa Kyoto [2] (cell cycle stage: mitosis), 1.02. For the same sequence, the melting temperature in the data set with HeLa Kyoto [3] (cell cycle stage: G1/S) was found to be 50.1 °C; with HeLa Kyoto [3] (cell cycle stage: mitosis), 49.5 °C. In addition, the “solubility change mitosis (log2)” value with HeLa Kyoto [4] was -0.0584.

Turning to “MLSLRVPLAPITDPQQLQLSPLKGLSLVDKENTPPALSGTRVLASKTARRIFQEPTEPKTKAAAPGVEDEPLLRENPRRFVIFPIEYHDIWQMYKKAEASFWTAEEVDLSKDIQHWESLKPEERYFISHVLAFFAASDGIVNENLVERFSQEVQITEARCFYGFQIAMENIHSEMYSLLIDTYIKDPKEREFLFNAIETMPCVKKKADWALRWIGDKEATYGERVVAFAAVEGIFFSGSFASIFWLKKRGLMPGLTFSNELISRDEGLHCDFACLMFKHLVHKPSEERVREIIINAVRIEQEFLTEALPVKLIGMNCTLMKQYIEFVADRLMLELGFSKVFRVENPFDFMENISLEGKTNFFEKRVGEYQRMGVMSSPTENSFTLDADF [RRM2]”, the “solubility in G1/S (log2)” value in the data set with HeLa Kyoto [1] is -0.239. The thermal stability score is -6.63 in the data set with HeLa Kyoto [2] (setting [5]) and -8.23 in the data set on HeLa Kyoto [2] (cell cycle stage: mitosis). In addition, the figures for the melting temperature in the data set with HeLa Kyoto [3] (cell cycle stage: G1/S) and in the data set on HeLa Kyoto [3] (cell cycle stage: mitosis) were 56.8 °C and 56.4 °C, respectively. The “solubility change mitosis (log2)” value in the data set on HeLa Kyoto [4] was 0.14.
